assay: soluble on expression in E. coli; label from the status in PepcDB or PDB records

Row | Sequence | soluble on expression in E. coli
1 | DEFQWKGLPVVKSGLDVGGMPTGTRYHRSPAWPEEQPGETHAPAPFGSGDKRYTFSQTEMLVNGLKPYTEPTAGVPPQLLSRAVTHVRSYIETIIGTHRSPVLTYHQACELLERTTSCGPFVQGLKGDYWDEEQQQYTGVLANHLEQAWDKANKGIAPRNAYKLALKDELRPIEKNKAGKRRLLWGCDAATTLIATAAFKAVATRLQVVTPMTPVAVGINMDSVQMQVMNDSLKGGVLYCLDYSKWDSTQNPAVTAASLAILERFAEPHPIVSCAIEALSSPAEGYVNDIKFVTRGGLPSGMPFTSVVNSINHMIYVAAAILQAYESHNVPYTGNVFQVETIHTYGDDCMYSVCPATASIFHTVLANLTSYGLKPTAADKSDAIKPTNTPVFLKRTFTQTPHGIRALLDITSITRQFYWLKANRTSDPSSPPAFDRQARSAQLENALAYASQHGPVMFDTVRQIAIKTAQGEGLVLVNTNYDQALATYNAWFIGGTVPDPVGHTEGTHKIVFEME | soluble
2 | MWYGLGLAFLGGIFRIFPFDMEHTITRQIFCPWLFAFSMTRKQFQGRKPYNYLASFLLFQCRLKESFHGQLVKPIVSWNLWTHRYHNGCFR | not soluble
3 | MPEAWIVEAVRTPIGKHGGALASVRPDDLLAHALSVLVDRSGVPKEEVEDVYAGCANQAGEDNRNVARMALLLAGFPVEVAGCTVNRLCGSGLEAVAQAARAIWAGEGKVYIGSGVESMSRAPYAVPKPERGFPTGNLVMYDTTLGWRFVNPKMQALYGTESMGETAENLAEMYGIRREEQDRFALLSHQKAVRAWEEGRFQDEVVPVPVKRGKEEILVEQDEGPRRDTSLEKLAALRPVFREGGTVTAGNSSPLNDGAAAVLLVSDDYAKAHGLRPLARVRAIAVAGVPPRIMGIGPVPATRKALERAGLSFSDLGLIELNEAFAAQALAVLREWSLSMEDQRLNPNGGAIALGHPLGASGARILTTLVHEMRRRKVQFGLATMCIGVGQGIAVVVEGMG | soluble
4 | MGSDKIHHHHHHMLSDITVRYKLNNSIKDSRFETEHLAKYHLSFQVNFELFRICIVDGDSNRCLFLEDYTLADIYTTNDLLEQLDILFEDHILIKAGFWKSITVGFKNTQFSLIPEALFEKDYLKEYLTLNTTLDREPDEEYHFYKQRQTEAVNVFATNQRLTSWFNKTYPLKQVRYVHHTASMIEGIMLQKDKNAAEKSVFIQVEQYFLTIIVKQGKKLIFCNSFTFNTSEDFVYFILFVFDQLELNPEKCPVVVFGEITHDSESFSKLYKYIRHLTFGSKPEFVRFGYQFDEVFDHRYFDLYNMHLCQG | not soluble
5 | MGSDKIHHHHHHLTQPITDWYKSGTGSTPVLKFQFATEKLLRPSGGGPSRRGTPIREIPMNLHKLLSDREQDGRPIRVGLIGAGRYGTMYLAQANNIPGIHVVAIADINVKRAEGAFELVGWPKNQIAPDIATALRDRSTTIVANADELFDVDIDVIVEATGNPIVGVKHALRAIETKKHIIMVTVEADALAGPALARRAEAAGVVYSMAYGDQPALIMELVDWARTSGFDVVCAGKGAKFLEHYHEMNPDNVWENWEFSKELTDSGQLNPNMHTSFRDGTKASIEMAAVANGAGLVPSDTGLTFTPGDVEEIATICRPADAGGVLAHEGTVDVMSSVKRDGTWIPHNTQEGVFVVVKATNAYVSGCFTEYPWHPDPTGQYAALYRPYHYVGLELNMSIANAALRGISTGSPIGFFGDVVATAKKNLKAGEFLDGEGGYTVWGQLVSAKHSVATGALPVALAHHVELRNDVAKGGIVGWDDVIMDDSLSQALEVRRETEALVAEFALNA | not soluble
6 | MGSDKIHHHHHHMWDWIGKLDELRRSNQLAVLVTVTKSSGSTPRKHGAKMIVLPDGTFYGTVGGGTPEYYALEDARACFETMQSTTSSVPLKQRGEFPACGGTMEFYMEVINDNPVLHLFGAGHIGQSLCQILDGTPFRIHLIDEREEWINAPNLPGSVIRHQRHYSDFIEKAIWCDKRTFVAIQTFSGTLDQQVLEEVLPNPTRYVGMIGSKAKWAKVRSNLEEKGLDLSAVRCPIGHDNGGNSPREIAISIASQLLSTYYGRE | not soluble
7 | MSLETVLVPVDFTIEKEDLLGCIGEFKNAGLKKVILLHVVDIHKSQGLAPMFERNAKKRIEDYTGFAEELGLETEALVVVGDIKRTISETADRKNVDAIIMGATAKGFIKGRFLGRTTEHIARSSKKILLVEKYDALKEGKEFYKNACRATFSRVLVPLDFSKESMKAIEQLQEFGGIVKEVLLLHVIDNIKDMDLLDEQREEAKGKLGRIKEQLTGIKSQYLVVEGIPSDEIVKFANIEEATMIMLTSRGKGDLIDLILGSTAESVLRKTIKPVLIIPASKEFDGEEGHHHHHH | soluble
8 | MGHHHHHHSHMSSYHCAMNNENARLLTFQTWPLTFLSPTDLAKAGFYYIGPGDRVACFACGGKLSNWEPKDNAMSEHLRHFPKCPFIENQLQDTSRYTVSNLSMQTHAARFKTFFNW | not soluble
9 | MGSDKIHHHHHHEDVYREVTASGAHNLTLAVDNPRNLGGADDAALARDVAEVLRFDMTLAGPFSVMAPPAGTSPGGIRPGEFDLDSWRNAGVDLLVKSGYTITGDSVTMEFRLYNATQGRELAAKRYTGKRSDLRRITHTFSDDIMQTMTGERGPFTGKIAFVSTESGNKEIYLMDYDGHNVQRLTKNRSINLNPDFSPNGRELAYTSYRRGNPDLFRREIFTGTEAVVSSHRGINVTGTWSPDGKQLALAMSRDGNSEIYAISRDGRDPRRLTTHQAIDVSPAWSPDGKRIAFVSDRLGKPQVFIMNADGSDVRRLTTSGAYNVSPRWSPKGDRLVYCRQEGGFQIYSIATDGTGDTRLTSEGSNEHPRWSPDGRFLTFSSTRDGGEAIYVMRSDGSGQTRVYRSKGKASHPTWSPRW | not soluble
10 | MTELKNDRYLRALLRQPVDVTPVWMMRRAGRYLPEYKATRAQAGDFMSLCKNAELACEVTLQPLRRYPLDAAILFSDILTIPDAMGLGLYFEAGEGPRFTAPVTCKADVEKLPIPDPEGELGYVMNAVRTIRRELKGEVPLIGFSGSPWTLATYMVEGGSSKAFTVIKKMMYADPQALHLLLDKLAKSVTLYLNAQIKAGAQSVMIFDTWGGVLTGRDYQQFSLYYMHKIVDGLLRENDGRRVPVTLFTKGGGQWLEAMAETGCDALGLDWTTDIADARRRVGHKVALQGNMDPSMLYAPPARIEDEVATILAGFGQGEGHVFNLGHGIHQDVPPEHAGAFVEAVHRLSAQYHN | not soluble
11 | MGSDKIHHHHHHMAQNFHDNSQVSSEMSTAISRTAKPSSEFYSIFSEEEILGIICALEIRREIPLKYSYKGRGAKIWDDFYQKYIIPRWYRISNVEIELLKSNFKYFNDNIKSGEKINIVDVGAGNSYPVKDFVQRLNKLNKINKYVALDISEELLNLSKNNFKKWFPNVEFISSTIDIENNCVPKTLFQNNPDLEMDNTAKIFLHLGVTIGNHQNRDKVFKNFRESMGKNDFLVFTNEIGSNSKWDGNVRGGCKYHVEEIYGWVKNKVGIESEGCELVRKYDLKTDSIVANIRFNHDYTINFSRMGIDKKIEISEGEEITIWRHHKYEMPKLLQELERSGLQLIQYSTDKYKSHIMVICKISSN | not soluble
12 | MSDQLQMTDGMHIIVEALKQNNIDTIYGVVGIPVTDMARHAQAEGIRYIGFRHEQSAGYAAAASGFLTQKPGICLTVSAPGFLNGLTALANATVNGFPMIMISGSSDRAIVDLQQGDYEELDQMNAAKPYAKAAFRVNQPQDLGIALARAIRVSVSGRPGGVYLDLPANVLAATMEKDEALTTIVKVENPSPALLPCPKSVTSAISLLAKAERPLIILGKGAAYSQADEQLREFIESAQIPFLPMSMAKGILEDTHPLSAAAARSFALANADVVMLVGARLNWLLAHGKKGWAADTQFIQLDIEPQEIDSNRPIAVPVVGDIASSMQGMLAELKQNTFTTPLVWRDILNIHKQQNAQKMHEKLSTDTQPLNYFNALSAVRDVLRENQDIYLVNEGANTLDNARNIIDMYKPRRRLDCGTWGVMGIGMGYAIGASVTSGSPVVAIEGDSAFGFSGMEIETICRYNLPVTIVIFNNGGIYRGDGVDLSGAGAPSPTDLLHHARYDKLMDAFRGVGYNVTTTDELRHALTTGIQSRKPTIINVVIDPAAGTESGHITKLNPKQVAGN | soluble
13 | MAHHHHHHMSAGSDARIYRCTFIKKEAVKKVIYRKYYRHKKIDTKIRKLRVSNEIKFTKKLASLNIDVPYIYFVDAKEKSLYFEYVKGCTINFILKNLKEYEPKIPICVGMVLAKIHNGNIIHGDYTTSNLILRNSFIQQNNLLDLKNNNSPYNFSDLENVKLCVIDFGLSFLSSSIEDKAVDLFVLLKTIKSFHSEFPSLEEDILEGYKMKSDNVNDIFTKLEIVKQRGRKRPMVG | not soluble
14 | MKCRKCGEPSVYHQKHSGNKYCRTCFIKETKRKVRKTLGRDVLKNNIKVAMGLSGGKDSLVMAYLLNEFYKEIPNSKIIAIMVNEGIEGYRLDGIEAAVKFCEKHDIEYKIVQFKDYLGTNLDEIVKLAKEKNLTMNPCSFCGVIRRKILNRVSIEEKCDFLAIGHNLDDIAQAVMMNYIEGDVKKLAFLGKSLKHPKFVKRIKPLEKIPEDEVLLLADMLELTYHKSPCPYSCLSFRSEVSEITDTLEKNHPGTKYSIVRGYERLLEHIELPGYTGECKICGDLSATEVCKVCSYLKNLGILEKSKFEKI | not soluble
15 | MGHHHHHHSHMANPKLLGLELSEAEAIGADSARFEELLLQASKELQQAQTTRPESTQIQPQPGFCIKTNSSEGKVFINICHSPSIPPPADVTEEELLQMLEEDQAGFRIPMSLGEPHAELDAKGQGCTAYDVAVNSDFYRRMQNSDFLRELVITIAREGLEDKYNLQLNPEWRMMKNRPFMGSISQQNIRSEQRPRIQELGDLYTPAPGRAESGPEKPHLNLWLEAPDLLLAEIDLPKLDGALGLSLEIGENRLVMGGPQQLYHLDAYIPLQINSHESKAAFHRKRKQLMVAMPLLLVPS | not soluble
16 | SAASAALILPESPSMKKAVPLINAIDTGRFPRLLSRILQKLHLKAESSFSEEEEEKLQAAFSLEKQELHLVLETISFVLEQAVYHNVKPAALQQQLEMIHLRKDKAEAFASAWSAMGQETVEKFRQRILGPHKLETVGWQLNLQMAHSAQAKLQSPQAVLQLGVSKEDAKNVEKVLVEFNHKELFDFYNKLETIQAQLDSLT | soluble
17 | MGSSHHHHHHSSGLVSRRHMNIDMAALHAIEVDRGISVNELLETIKSALLTAYRHTQGHQTDARIEIDRKTGVVRVIARETDEAGNLISEWDDTPEGFGRIAATTARQVMLQRFRDAENERTYGEFSTREGEIVAGVIQRDSRANARGLVVVRIGTETKASEGVIPAAEQVPGESYEHGNRLRCYVVGVTRGAREPLITLSRTHPNLVRKLFSLEVPEIADGSVEIVAVAREAGHRSKIAVRSNVAGLNAKGACIGPMGQRVRNVMSELSGEKIDIIDYDDDPARFVANALSPAKVVSVSVIDQTARAARVVVPDFQLSLAIGKEGQNARLAARLTGWRIDIRGDAPPPPPGQPEPGVSRGMAHDR | soluble
18 | MKIIARNKKALFDYSIIERFEAGIVLKGSEVVALRAGRANLKDSFVRIIKNEIFLLNSHISLLHTTHSFYKHEERGARKLLMHRKQIDKLLGKVSIEGYTIVALDLYFNTKNKVKATLALAKGKNLHDKRETLKKKQADLEARAAMKNYK | not soluble

From the DeepSol protein solubility set
